The source of these data is patent US7026125, “Heterodimers of retinoid X receptors (RXRS) and other steroid hormone receptors” (Ligand Pharmaceuticals).

What all share (details): label: 32P
For data set [1], the target named is RARγ + RXRαm5 (UniProt P13631;P19793 P13631:1-454,P19793:198-462, RXRα N-terminal deletion of 198 aa including DNA binding domain). Put plainly: EMSA. On the procedure: (§1) In vitro translated receptor protein (1 to 5 μl depending on the translation efficiency) was incubated with the ^32P-labeled oligonucleotides in a 20-μl reaction mixture containing 10 mM hepes buffer, pH 7.9, 50 mM KCl, 1 mM DTT, 2.5 mM MgCl, 10% glycerol, and 1 μg of poly(dI-dC) at 25° C. for 20 minutes. In general, relative low receptor concentration was used to obtain the clear effect of heterodimer formation. The reaction mixture was then loaded on a 5% nondenaturing ployacrylamide gel containing 0.5×TBE (1×TBE=0.089 M Tris-borate, 0.089 M boric acid, and 0.002 M EDTA). To analyze the effect of RXRα or the nuclear proteins on receptor DNA binding activity, RXRα or the cell extracts were preincubated with receptor protein at room temperature for 10 minutes before performing the DNA binding assay. When antibody was used, 1 μl of the antiserum was incubated with the specific translation products at room temperature for 45 minutes before performing the experiments described above.
RARγ + RXRαm5, sequence (P19793 199-462, stated change not applied, chain 2 of 2, one chain of several): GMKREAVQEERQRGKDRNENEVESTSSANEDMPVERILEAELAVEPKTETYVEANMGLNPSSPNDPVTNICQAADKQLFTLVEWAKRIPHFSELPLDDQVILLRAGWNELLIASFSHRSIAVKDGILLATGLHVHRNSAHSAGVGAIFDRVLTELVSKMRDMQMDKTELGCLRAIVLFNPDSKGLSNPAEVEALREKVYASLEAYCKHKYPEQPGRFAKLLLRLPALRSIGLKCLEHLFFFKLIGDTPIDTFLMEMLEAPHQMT
(A gel shift assay detects complexes by their altered migration in electrophoresis.)

Data set [2] addresses TRα/RXRαm3 (UniProt P10827-2;P19793 P10827-2:1-410,P19793:28-462, RXRα N-terminal deletion of 28 aa). The experiment in a line: EMSA. On the procedure:
as §1

Data set [3] addresses RARγ/RXRαm3 (UniProt P13631;P19793 P13631:1-454,P19793:28-462, RXRα N-terminal deletion of 28 aa). The experiment in a line: EMSA. The protocol:
as §1

Data set [4] deals with T1, TRα (UniProt P10827-2 P10827-2:1-410).
T1 sequence: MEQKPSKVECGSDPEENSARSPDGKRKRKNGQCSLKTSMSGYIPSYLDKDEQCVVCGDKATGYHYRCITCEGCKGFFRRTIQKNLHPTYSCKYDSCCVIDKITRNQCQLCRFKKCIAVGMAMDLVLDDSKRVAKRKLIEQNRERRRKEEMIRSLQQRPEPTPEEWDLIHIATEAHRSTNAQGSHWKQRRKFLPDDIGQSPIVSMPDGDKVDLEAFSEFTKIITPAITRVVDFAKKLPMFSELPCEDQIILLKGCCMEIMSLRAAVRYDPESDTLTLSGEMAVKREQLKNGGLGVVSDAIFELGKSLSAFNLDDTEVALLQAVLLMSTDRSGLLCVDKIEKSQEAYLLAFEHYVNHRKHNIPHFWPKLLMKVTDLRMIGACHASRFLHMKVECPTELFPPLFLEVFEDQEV
The experiment in a line: EMSA; monomer complex; 25 C, 50 mM KCl. The protocol: (§2) (a) In vitro synthesized TRα, TRβ, RARα, RARβ, RARγ and TRα2 receptor proteins were preincubated either with (+) or without (−) equal amount of in vitro synthesized RXRα protein at room temperature for 10 minutes. Following this preincubation, the reaction mixtures were incubated with ^32p-labelled palindromic TRE (for 1 sequence see FIG. 2a) and analyzed by gel retardation assay as described in Experimental Procedures. […] As a control, equal amounts of TRα and RARα proteins were also mixed and incubated with labelled TRE.
as §1, with “When antibody was used, 1 μl of the antiserum was incubated with the specific translation products at room temperature for 45 minutes before performing the experiments described above.” left out

Data set [5] addresses RARγ/RXRαm4 (UniProt P13631;P19793 P13631:1-454,P19793:61-462, RXRα N-terminal deletion of 61 aa). Put plainly: EMSA; faster migrating than RXRαm3 complex. On the procedure:
as §1

Data set [6] has as its target TRαm1/RXRα (UniProt P10827-2;P19793 P10827-2:1-402,P19793:1-462, TRα C-terminal deletion of 8 aa). The experiment in a line: EMSA; interaction unaffected. The protocol: as §1
Data set [7] has as its target T2, RARγ (UniProt P13631 P13631:1-454).
T2 sequence: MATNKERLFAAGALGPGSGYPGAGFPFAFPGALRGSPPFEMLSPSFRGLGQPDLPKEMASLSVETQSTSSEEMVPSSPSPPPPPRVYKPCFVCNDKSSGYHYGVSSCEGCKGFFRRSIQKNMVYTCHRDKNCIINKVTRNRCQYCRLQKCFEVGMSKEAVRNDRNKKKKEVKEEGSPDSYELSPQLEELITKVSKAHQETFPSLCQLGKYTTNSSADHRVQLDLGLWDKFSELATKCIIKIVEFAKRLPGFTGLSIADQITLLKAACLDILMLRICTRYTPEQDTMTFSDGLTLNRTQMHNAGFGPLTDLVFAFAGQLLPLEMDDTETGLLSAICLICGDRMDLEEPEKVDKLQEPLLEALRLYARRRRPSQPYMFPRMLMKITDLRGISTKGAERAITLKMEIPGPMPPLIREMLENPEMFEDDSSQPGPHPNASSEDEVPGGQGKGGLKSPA
The experiment in a line: EMSA; no detectable complex under conditions used. On the procedure: as §2, §1

Data set [8] concerns the target TRα/RXRαm4 (UniProt P10827-2;P19793 P10827-2:1-410,P19793:61-462, RXRα N-terminal deletion of 61 aa). Put plainly: EMSA; faster migrating than RXRαm3 complex. On the procedure: as §1, with “In” for “In vitro translated receptor protein (1 to 5 μl depending on the translation efficiency) was incubated with the ^32P-labeled oligonucleotides in a 20-μl reaction mixture containing 10 mM hepes buffer, pH 7.9, 50 mM KCl, 1 mM DTT, 2.5 mM MgCl, 10% glycerol, and 1 μg of poly(dI-dC) at 25° C. for 20 minutes. In”

RARγ/RXRαm4, sequence (P19793 62-462, stated change not applied, chain 2 of 2, one chain of several): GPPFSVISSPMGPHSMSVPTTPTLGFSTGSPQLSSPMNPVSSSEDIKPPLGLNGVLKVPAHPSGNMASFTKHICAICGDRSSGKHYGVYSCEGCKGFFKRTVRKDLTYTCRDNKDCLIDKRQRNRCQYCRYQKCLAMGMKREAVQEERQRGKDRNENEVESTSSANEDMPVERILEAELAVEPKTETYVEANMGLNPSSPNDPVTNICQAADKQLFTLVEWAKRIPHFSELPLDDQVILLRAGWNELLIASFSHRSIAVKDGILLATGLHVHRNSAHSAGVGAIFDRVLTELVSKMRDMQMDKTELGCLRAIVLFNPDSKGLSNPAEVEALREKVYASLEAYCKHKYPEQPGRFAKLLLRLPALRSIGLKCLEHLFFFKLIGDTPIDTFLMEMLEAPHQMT
RARγ/RXRαm3, sequence (P19793 29-462, stated change not applied, chain 2 of 2, one chain of several): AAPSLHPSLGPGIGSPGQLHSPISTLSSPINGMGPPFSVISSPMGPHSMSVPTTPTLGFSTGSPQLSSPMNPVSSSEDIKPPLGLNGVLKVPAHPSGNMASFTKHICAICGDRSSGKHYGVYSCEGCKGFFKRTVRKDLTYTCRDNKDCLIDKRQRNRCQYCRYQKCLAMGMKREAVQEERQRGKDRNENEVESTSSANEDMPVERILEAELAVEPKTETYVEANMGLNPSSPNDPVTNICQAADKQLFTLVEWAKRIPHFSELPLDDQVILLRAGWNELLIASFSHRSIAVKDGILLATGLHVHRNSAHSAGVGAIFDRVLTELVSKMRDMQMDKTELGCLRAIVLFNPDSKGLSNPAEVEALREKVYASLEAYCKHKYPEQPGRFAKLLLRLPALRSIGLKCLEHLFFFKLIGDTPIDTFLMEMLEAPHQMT
TRα/RXRαm4, sequence (P19793 62-462, stated change not applied, one chain of several): as the sequence (P19793 62-462, stated change not applied, chain 2 of 2, one chain of several) above
TRα/RXRαm3, sequence (P19793 29-462, stated change not applied, one chain of several): as the sequence (P19793 29-462, stated change not applied, chain 2 of 2, one chain of several) above
TRαm1/RXRα, sequence (P19793 whole entry, stated change not applied, one chain of several): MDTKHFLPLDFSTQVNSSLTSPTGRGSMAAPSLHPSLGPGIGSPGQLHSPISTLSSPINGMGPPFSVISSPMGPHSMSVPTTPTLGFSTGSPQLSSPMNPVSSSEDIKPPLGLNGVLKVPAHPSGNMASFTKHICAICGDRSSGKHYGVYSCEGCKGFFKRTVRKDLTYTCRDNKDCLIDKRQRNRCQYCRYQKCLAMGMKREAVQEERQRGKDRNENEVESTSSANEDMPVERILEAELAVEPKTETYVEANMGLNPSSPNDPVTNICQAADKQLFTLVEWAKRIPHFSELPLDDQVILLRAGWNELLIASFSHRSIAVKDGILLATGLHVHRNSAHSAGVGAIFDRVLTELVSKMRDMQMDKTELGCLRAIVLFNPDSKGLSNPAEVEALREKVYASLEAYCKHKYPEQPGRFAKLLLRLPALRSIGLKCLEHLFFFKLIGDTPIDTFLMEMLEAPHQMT

B1: palindromic TRE (dsDNA)
DNA 1: GATCTCAGGTCATGACCTGAGATC
DNA 2: GATCTCAGGTCATGACCTGAGATC
On to B1, for which the binding result is “no binding” in data set [1]; “binds” in data set [2]; “binds” in data set [3]; “binds” in data set [4]; “binds” in data set [5]; “binds” in data set [6]. The figures for the binding result in data set [7] and in data set [8] were “no binding” and “binds”, respectively.
